Laboratory results from patent publication US20250034239A1 (LINNO PHARMACEUTICALS, published 2025).

Key:
[1] = molecular target: T1, human transferrin (Sigma T3309) (human, UniProt P02787 20-698); experiment: flow cytometry on HEK293F-hTfR1 cells with human transferrin, pH 6.0
T1 construct: mature; same polypeptide; also called native human transferrin; hTf
Description: (§1) HEK293F-hTfR1 cells were prepared by transfecting hTfR1-expressing plasmid, with a GFP tag, into HEK293F cells. Stable pool was used for this assay. Briefly, the engineered HEK293F cells expressing hTfR1 were cultured with OPM-293 CD05 medium at 37° C., with 8% CO₂ and saturated humidity in cell shaker. […] The cells were washed twice by centrifugation at 300 g for 5 min at 4° C., before rabbit anti-OVA antibodies and a secondary anti-rabbit IgG-AF647 (all prepared in blocking buffer). The cells were scanned with CytoFLEX (Beckman).

[2] = molecular target: T1, human transferrin (Sigma T3309); experiment: flow cytometry on HEK293F-hTfR1 cells with human transferrin, pH 7.4
Description: as §1

T1 sequence (P02787 20-698): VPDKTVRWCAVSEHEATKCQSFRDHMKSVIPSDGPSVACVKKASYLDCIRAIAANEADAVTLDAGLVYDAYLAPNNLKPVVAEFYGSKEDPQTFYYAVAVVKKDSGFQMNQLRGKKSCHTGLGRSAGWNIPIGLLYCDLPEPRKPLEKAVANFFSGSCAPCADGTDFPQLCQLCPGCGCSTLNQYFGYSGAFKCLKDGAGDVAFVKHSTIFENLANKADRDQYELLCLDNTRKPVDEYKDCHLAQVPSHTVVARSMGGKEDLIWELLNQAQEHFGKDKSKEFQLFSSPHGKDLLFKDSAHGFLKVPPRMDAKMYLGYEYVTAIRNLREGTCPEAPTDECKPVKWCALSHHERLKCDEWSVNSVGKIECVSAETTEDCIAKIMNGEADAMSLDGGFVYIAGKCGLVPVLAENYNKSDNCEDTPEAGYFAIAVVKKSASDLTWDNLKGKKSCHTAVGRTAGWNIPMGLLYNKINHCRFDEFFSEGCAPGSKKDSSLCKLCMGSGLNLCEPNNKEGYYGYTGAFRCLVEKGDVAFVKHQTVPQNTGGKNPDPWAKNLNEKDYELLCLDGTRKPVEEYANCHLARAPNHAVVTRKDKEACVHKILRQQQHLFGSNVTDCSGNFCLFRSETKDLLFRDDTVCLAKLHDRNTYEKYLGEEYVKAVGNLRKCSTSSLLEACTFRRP

percent binding (flow cytometry, VHH/Tf on hTfR1-overexpressing cells, pH 6.0) [1]: < 5% | percent binding (flow cytometry, VHH/Tf on hTfR1-overexpressing cells, pH 7.4) [2]: < 5%
B1: SLN0066 VHH-OVA-His (negative control VHH) (VHH)
chain: HVQLVESGGGSVQAGGSLRLSCVASGIGHGFNNNCMGWFRQAPGKEREGVAAVYTGGGTPYYADSVKGRFTLSQDNAKNTLYLQMNGLDPEDTAMYYCVADIWRTYRCGAGDTTVFDYRGQGTLVTVSSGSIGAASMEFCFDVFKELKVHHANENIFYCPIAIMSALAMVYLGAKDSTRTQINKVVRFDKLPGFGDSIEAQCGTSVNVHSSLRDILNQITKPNDVYSFSLASRLYAEERYPILPEYLQCVKELYRGGLEPINFQTAADQARELINSWVESQTNGIIRNVLQPSSVDSQTAMVLVNAIVFKGLWEKAFKDEDTQAMPFRVTEQESKPVQMMYQIGLFRVASMASEKMKILELPFASGTMSMLVLLPDEVSGLEQLESIINFEKLTEWTSSNVMEERKIKVYLPRMKMEEKYNLTSVLMAMGITDVFSSSANLSGISSAESLKISQAVHAAHAEINEAGREVVGSAEAGVDAASVSEEFRADHPFLFCIKHIATNAVLFFGRCVSP
notes: not shown: His tag
